The values that follow come from publication PMC9315428, “Distinctive in vitro ATP Hydrolysis Activity of AtVIPP1, a Chloroplastic ESCRT-III Superfamily Protein in Arabidopsis” (Frontiers in Plant Science, 2022).

Substrate in the series: Nc1ncnc2c1ncn2[C@@H]1O[C@H](COP(=O)(O)OP(=O)(O)OP(=O)(O)O)[C@@H](O)[C@H]1O
Put plainly: malachite green (PiColorLock) Pi release, Cornish-Bowden plot. The series is classed as biochemical, Arabidopsis thaliana. The note with it: Mg2+ (2.5 mM MgCl2), pH 7.5, 37 °C, 0.5-4.0 mM ATP. An excerpt: malachite green (PiColorLock) Pi release, Cornish-Bowden plot on AtVIPP1-His

B1: AtVIPP1-His (Arabidopsis thaliana) (protein)
chain: MNLFERFSRVVKSYANALISSFEDPEKILEQTVIEMNSDLTKMRQATAQVLASQKQLQNKYKAAQQSSDDWYKRAQLALAKGDEDLAREALKRRKSFADNATALKTQLDQQKGVVDNLVSNTRLLESKIQEAKAKKDTLLARARTAKTATKVQEMIGTVNTSGALSAFEKMEEKVMAMESEADALTQIGTDELEGKFQMLETSSVDDDLADLKKELSGSSKKGELPPGRSTVAASTRYPFKDSEIENELNELRRKANDF
notes: mature protein, N-terminal transit peptide removed, C-terminal His tag kept; E. coli BL21(DE3)pLysS; homo-oligomer (spherical particles 30-50 nm, some rods)
For B1, the Km came to 3.21 mM.

As a reminder, the Km is the substrate concentration at which the rate is half of its maximum.
